Among the data in patent publication US20150045540A1 (published 2015) are EC50 values, retold here.

The target of assay [1] is Hepatocyte Growth Factor (HGF), human (human, UniProt P14210 32-728). In words: ELISA. On the technique in general: ELISA stands for enzyme-linked immunosorbent assay.
Assay [2] has as its target T1, Placenta Growth Factor (PlGF), human (human, UniProt P49763 21-149).
T1 chain: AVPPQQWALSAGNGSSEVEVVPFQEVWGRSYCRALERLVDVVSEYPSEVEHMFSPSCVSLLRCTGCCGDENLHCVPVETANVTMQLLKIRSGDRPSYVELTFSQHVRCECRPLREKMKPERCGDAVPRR
Put plainly: ELISA.

Sequence of Hepatocyte Growth Factor (HGF), human (P14210 32-728): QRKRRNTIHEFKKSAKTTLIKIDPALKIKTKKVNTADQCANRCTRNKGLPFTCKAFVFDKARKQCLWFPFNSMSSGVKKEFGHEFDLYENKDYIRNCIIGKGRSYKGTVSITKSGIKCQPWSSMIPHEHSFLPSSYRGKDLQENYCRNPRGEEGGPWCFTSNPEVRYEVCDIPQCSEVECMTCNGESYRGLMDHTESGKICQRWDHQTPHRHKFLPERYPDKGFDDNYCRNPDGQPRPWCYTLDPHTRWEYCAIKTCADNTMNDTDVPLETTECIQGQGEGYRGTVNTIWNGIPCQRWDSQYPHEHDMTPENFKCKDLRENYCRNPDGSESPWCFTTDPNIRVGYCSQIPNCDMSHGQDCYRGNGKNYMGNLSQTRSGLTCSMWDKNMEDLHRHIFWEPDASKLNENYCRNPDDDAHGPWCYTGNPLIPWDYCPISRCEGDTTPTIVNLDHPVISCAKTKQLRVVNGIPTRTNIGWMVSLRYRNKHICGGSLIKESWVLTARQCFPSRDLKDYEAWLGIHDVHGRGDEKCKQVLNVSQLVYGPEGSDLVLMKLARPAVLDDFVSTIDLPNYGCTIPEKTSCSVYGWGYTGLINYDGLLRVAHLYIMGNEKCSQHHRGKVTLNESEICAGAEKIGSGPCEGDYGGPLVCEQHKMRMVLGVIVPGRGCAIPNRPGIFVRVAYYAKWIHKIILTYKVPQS

B1: HC 9/SLC 9 (antibody)
chain 1: GQGTLVTVSSASTKGPSVFQPVLHQPPAMSSALGTTIRLTCTLRNDHDIGVYSVYWYQQRPGHPPRFLLRYFSQSDKSQGPQVPPRFSGSKDVARNRGYLSISELQPEDEAMYYCAMGARSRCWPRGFQSKHNSVTHVFGSGTQLTVLSQPKATPSVTLFPPSSEELQANKATLVCLMNDFYPGILTVTWKADGTPITQGVEMTTPSKQSNNKYAASSYLSLTPEQWRSRRSYSCQVMHEGSTVEKTVAPAECS
chain 2: MSWAPVLLMLFVYCTGCGPQPVLHQPPAMSSALGTTIRLTCTLRNDHDIGVYSVYWYQQRPGHPPRFLLRYFSQSDKSQGPQVPPRFSGSKDVARNRGYLSISVTHVFGSGTQLTVLSQPKATPSVQVQLVQ
Regarding B1, the figures for the EC50 in assay [1] and in assay [2] were 0.058 nM and 0.046 nM, respectively.

B2: HC 5/SLC 2 (antibody)
chain 1: GQGTLVTVSSASTKGQPVLHQPPAMSSALGTTIRLTCTLRNDHDIGVYSVYWYQQRPGHPPRFLLRYFSQSDKSQGPQVPPRFSGSKDVARNRGYLSISELQPEDEAMYYCAMGARSRCWPRGFQSKHNSVTHVFGSGTQLTVLSQPKATPSVTLFPPSSEELQANKATLVCLMNDFYPGILTVTWKADGTPITQGVEMTTPSKQSNNKYAASSYLSLTPEQWRSRRSYSCQVMHEGSTVEKTVAPAECS
chain 2: MSWAPVLLMLFVYCTGCGPQPVLHQPPAMSSALGTTIRLTCTLRNDHDIGVYSVYWYQQRPGHPPRFLLRYFSQSDKSQGPQVPPRFSGSKDVARNRGYLSISVTHVFGSGTQLTVLSQQVQLVQ
For the molecule B2, the results for the EC50 in assay [1] and in assay [2] were 0.051 nM and 0.197 nM, respectively.

B3: HC 5/SLC 6 (antibody)
chain 1: B2 chain 1
chain 2: MSWAPVLLMLFVYCTGCGPQPVLHQPPAMSSALGTTIRLTCTLRNDHDIGVYSVYWYQQRPGHPPRFLLRYFSQSDKSQGPQVPPRFSGSKDVARNRGYLSISVTHVFGSGTQLTVLSQPKATQVQLVQ
As to B3, the EC50 (usually the concentration that produces a half-maximal response) is 0.059 nM in assay [1] and 0.157 nM in assay [2].

B4: HC 3/SLC 5 (antibody)
chain 1: GQGTLVTVSSASTQPVLHQPPAMSSALGTTIRLTCTLRNDHDIGVYSVYWYQQRPGHPPRFLLRYFSQSDKSQGPQVPPRFSGSKDVARNRGYLSISELQPEDEAMYYCAMGARSRCWPRGFQSKHNSVTHVFGSGTQLTVLSQPKATPSVTLFPPSSEELQANKATLVCLMNDFYPGILTVTWKADGTPITQGVEMTTPSKQSNNKYAASSYLSLTPEQWRSRRSYSCQVMHEGSTVEKTVAPAECS
chain 2: MSWAPVLLMLFVYCTGCGPQPVLHQPPAMSSALGTTIRLTCTLRNDHDIGVYSVYWYQQRPGHPPRFLLRYFSQSDKSQGPQVPPRFSGSKDVARNRGYLSISVTHVFGSGTQLTVLSQPKAQVQLVQ
Take B4: the concentration giving a half-maximal response (EC50) in assay [1] turned out to be 0.054 nM; in assay [2], 0.249 nM.

B5: HC 10/SLC 8 (antibody)
chain 1: GQGTLVTVSSASTKGPSVFPQPVLHQPPAMSSALGTTIRLTCTLRNDHDIGVYSVYWYQQRPGHPPRFLLRYFSQSDKSQGPQVPPRFSGSKDVARNRGYLSISELQPEDEAMYYCAMGARSRCWPRGFQSKHNSVTHVFGSGTQLTVLSQPKATPSVTLFPPSSEELQANKATLVCLMNDFYPGILTVTWKADGTPITQGVEMTTPSKQSNNKYAASSYLSLTPEQWRSRRSYSCQVMHEGSTVEKTVAPAECS
chain 2: MSWAPVLLMLFVYCTGCGPQPVLHQPPAMSSALGTTIRLTCTLRNDHDIGVYSVYWYQQRPGHPPRFLLRYFSQSDKSQGPQVPPRFSGSKDVARNRGYLSISVTHVFGSGTQLTVLSQPKATPSQVQLVQ
For the molecule B5, the half-maximal effective concentration (EC50) in assay [1] turned out to be 0.048 nM; in assay [2] it was 0.046 nM.

B6: HC 10/SLC 6 (antibody)
chain 1: B5 chain 1
chain 2: B3 chain 2
In the case of B6, the EC50 worked out at 0.061 nM in assay [1] and 0.089 nM in assay [2].

B7: HC 3/SLC 8 (antibody)
chain 1: B4 chain 1
chain 2: B5 chain 2
In the case of B7, the EC50 in assay [1] was found to be 0.056 nM; in assay [2], 0.157 nM.

B8: HC 10/SLC 4 (antibody)
chain 1: B5 chain 1
chain 2: MSWAPVLLMLFVYCTGCGPQPVLHQPPAMSSALGTTIRLTCTLRNDHDIGVYSVYWYQQRPGHPPRFLLRYFSQSDKSQGPQVPPRFSGSKDVARNRGYLSISVTHVFGSGTQLTVLSQPKQVQLVQ
For the molecule B8, the EC50 in assay [1] was 0.07 nM; in assay [2], 0.153 nM.

B9: HC 2/SLC 6 (antibody)
chain 1: GQGTLVTVSSASQPVLHQPPAMSSALGTTIRLTCTLRNDHDIGVYSVYWYQQRPGHPPRFLLRYFSQSDKSQGPQVPPRFSGSKDVARNRGYLSISELQPEDEAMYYCAMGARSRCWPRGFQSKHNSVTHVFGSGTQLTVLSQPKATPSVTLFPPSSEELQANKATLVCLMNDFYPGILTVTWKADGTPITQGVEMTTPSKQSNNKYAASSYLSLTPEQWRSRRSYSCQVMHEGSTVEKTVAPAECS
chain 2: B3 chain 2
Regarding B9, the figures for the EC50 in assay [1] and in assay [2] were 0.056 nM and 0.161 nM, respectively.

B10: HC 7/SLC 15 (antibody)
chain 1: GQGTLVTVSSASTKGPSQPVLHQPPAMSSALGTTIRLTCTLRNDHDIGVYSVYWYQQRPGHPPRFLLRYFSQSDKSQGPQVPPRFSGSKDVARNRGYLSISELQPEDEAMYYCAMGARSRCWPRGFQSKHNSVTHVFGSGTQLTVLSQPKATPSVTLFPPSSEELQANKATLVCLMNDFYPGILTVTWKADGTPITQGVEMTTPSKQSNNKYAASSYLSLTPEQWRSRRSYSCQVMHEGSTVEKTVAPAECS
chain 2: MSWAPVLLMLFVYCTGCGPQPVLHQPPAMSSALGTTIRLTCTLRNDHDIGVYSVYWYQQRPGHPPRFLLRYFSQSDKSQGPQVPPRFSGSKDVARNRGYLSISVTHVFGSGTQLTVLSQPKATPSVTGGGGSQVQLVQ
With B10, the values for the EC50 in assay [1] and in assay [2] were 0.053 nM and 0.052 nM, respectively.

B11: HC 6/SLC 4 (antibody)
chain 1: GQGTLVTVSSASTKGPQPVLHQPPAMSSALGTTIRLTCTLRNDHDIGVYSVYWYQQRPGHPPRFLLRYFSQSDKSQGPQVPPRFSGSKDVARNRGYLSISELQPEDEAMYYCAMGARSRCWPRGFQSKHNSVTHVFGSGTQLTVLSQPKATPSVTLFPPSSEELQANKATLVCLMNDFYPGILTVTWKADGTPITQGVEMTTPSKQSNNKYAASSYLSLTPEQWRSRRSYSCQVMHEGSTVEKTVAPAECS
chain 2: B8 chain 2
Consider B11, for which the EC50 is 0.06 nM in assay [1] and 0.191 nM in assay [2].

B12: HC 3/SLC 4 (antibody)
chain 1: B4 chain 1
chain 2: B8 chain 2
In the case of B12, the values for the EC50 in assay [1] and in assay [2] were 0.067 nM and 0.22 nM, respectively.

B13: HC 2/SLC 4 (antibody)
chain 1: B9 chain 1
chain 2: B8 chain 2
Consider B13, for which the EC50 came out at 0.058 nM in assay [1] and 0.175 nM in assay [2].
